This note sets out measurements from patent US20260265360A1, “USE OF ANTI-FAM19A5 ANTAGONISTS FOR TREATING HEARING DISORDERS” (NEURACLE SCIENCE CO., LTD., priority 2023, published 2026).

Common to all, as to format: binding
In assay [1] the target is T1, FAM19A5 mutants M1 to M8 (Homo sapiens, UniProt Q7Z5A7).
T1 construct: made in house; host or cells: phage display with helper phage
The assay is described as follows: Epitope mapping ELISA with FAM19A5 mutants M1-M8. Here is the method:
(§1) To further characterize the binding epitopes of the anti-FAM19A5 antibodies disclosed in the present disclosure, the amino acid sequences for the different FAM19 family members (i.e., FAM19A1-5) were aligned. […] The amino acid sequences of these regions were replaced with the consensus sequence of the corresponding regions for the FAM19A1-4 proteins. See Table 13 (the mutated amino acid residues are bolded and underlined).
(§2) The mutant FAM19A5-expressing phages were prepared as follows. To prepare the media for phage culture, 55.6 ml of 2M Glucose (D-(+)-Glucose, Sigma), 5 mL of 1M MgCl2 (Magnesium chloride, Junsei) 1 mL of 34 mg/mL chloramphenicol (Sigma) were added to 2×YT media. Colonies obtained through mono-phage ELISA were selected and placed in 5 mL of prepared media (2×YT-GMC) to be cultured for 16 hours at 37° C. with shaking incubator (VS-8480, Vision). 100 μL of each culture was transferred to 10 mL 2×YT-GMC individually which were cultured at 37° C. in the incubator until detection value at O.D. 600 nm reached 0.5. Once detection value has reached 0.5 at O.D. 600 nm, 5 mL of each culture were obtained as samples to be infected. Following sample preparation, 50 μL of […] was added to individual samples then incubated at 37° C. without shaking for 30 minutes and with shaking for additional 30 minutes. Individual cultures were centrifuged for 15 minutes at 3,850 rpm using Micro centrifuge (Micro12, Hanil). The supernatants of centrifuged cultures were removed to be kept separate and replaced with 5 mL of 2×YT media containing 1 mL of IM IPTG (AG Scientific), 5 mL of 1M MgCl2.1 ml of 70 μg/μL kanamycin (Biopure) and 1 mL of Chloramphenicol. The resulting pellets were dispersed thoroughly in newly added media followed by incubation at 30° C. for 16 hours with stirring.
(In an ELISA, binding on a coated surface is turned into a signal by an enzyme label.)

The next assay has as its target FAM19A5 antigen (Homo sapiens, UniProt Q7Z5A7). The assay is described as follows: Cross-competition two-site sandwich ELISA. The conditions noted are these: antibodies 1-65, P2-A03, P2-F11, 13B4, 2-13, 3-2; cross-competition = S/N ratio lower than 2. The protocol: The term “S/N” refers to the signal to noise ratio, which is measured as follows: [O.D. of 10 ng/ml antigen]/[O.D. of 0 ng/ml antigen].
Next, a two-site sandwich ELISA was used as described below to assess whether the different anti-FAM19A5 antibodies with similar binding epitopes cross-compete with each other.
First, the indicated anti-FAM19A5 antibodies were diluted in 1×PBS to a concentration of 10 μg/mL. The diluted anti-FAM19A5 antibodies (10 μg/mL in 1×PBS) (“capture antibody”) were used to coat the 96-well plates (100 μL/well) at 37° C. for approximately 1 hour. After the incubation, the plates were washed with the washing buffer (0.01% Tween-20/PBS; also called 0.01% PBST) for a total of five washes, blocked with the blocking solution (5% BSA/PBS; also called 5% PBSA) (250 μL/well) for one hour at 37° C., and then washed again. Next, 100 μg/mL of the FAM19A5 antigen (diluted in PBS containing 5% BSA, 0.01% Tween-20; also called 5% PBSAT; “diluent buffer) was added to each of the wells, and the 96-well plates were incubated for 2 hours at 37° C. After the incubations, the plates were washed using 0.01% PBST for a total of five washes. After the final wash, the indicated biotinylated anti-FAM19A5 antibodies (“detection antibody”) (diluted to lug/mL in 5% PBSAT) were added to the relevant wells (100 μL volume) and the plates were incubated for an additional 1 hour at 37° C. Afterwards, the plates were washed again with 0.01% PBST (five total washes). Next, 100 μL of the diluted (1/2000 in 5% PBSAT) Streptavidin-HRP (1 mg/mL, Sigma, USA) was added to the wells, and the plates were incubated for 30 minutes at room temperature. The plates were then washed and treated with 100 μL of the TMB substrate ([…], Thermo Fisher Scientific). After an additional 30-minute incubation at room temperature, the color change reaction was induced by the addition of the TMB substrate. This reaction was stopped using 50 μL of sulfuric acid (2N H2SO4), and the extent of color change was detected via absorption at 450 nm with reference wavelength at 620 nm using a 96 well microplate reader (Molecular Device).

Assay [2] deals with T2, FAM19A5 mutants M1 to M8 (Homo sapiens, UniProt Q7Z5A7, D109K/G107E/I112P/L110T/N113D/R114N).
T2 construct: made in house; host or cells: phage display with helper phage
T2 sequence (Q7Z5A7 26-125 isoform Q7Z5A7-2 G100E/D102K/L103T/I105P/N106D/R107N): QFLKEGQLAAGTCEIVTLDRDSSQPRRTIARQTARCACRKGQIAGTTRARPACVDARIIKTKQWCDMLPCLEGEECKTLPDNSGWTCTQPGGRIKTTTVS
The assay is described as follows: Epitope mapping ELISA with FAM19A5 mutants M1-M8. Here is the method:
as §1, §2

T1 sequence (Q7Z5A7 with tags, fused parts or gaps isoform Q7Z5A7-2, change not shown): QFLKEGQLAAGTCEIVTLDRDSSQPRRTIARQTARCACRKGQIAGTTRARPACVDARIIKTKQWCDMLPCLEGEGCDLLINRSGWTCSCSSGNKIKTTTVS
Chain of FAM19A5 antigen (Q7Z5A7 44-132): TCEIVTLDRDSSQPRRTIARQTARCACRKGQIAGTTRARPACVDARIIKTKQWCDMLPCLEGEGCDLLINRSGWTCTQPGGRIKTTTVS

B1: P1-F02: anti-FAM19A5 antibody; VH SEQ ID NO: 161, VL SEQ ID NO: 172 (antibody, V domains shown)
VH: QSLEESGGRLVTPGTPLTLTCTASGFSLSNYYMGWVRQAPGEGLEWIGIIYASGSTYYASWAKGRFTISKTSTTVDLKMTSLTTEDTATYFCARIDIGVGDYGWAYDRLDLWGQGTLVTVSS
VL: ELDMTQTPPSLSASVGETVRIRCLASEDIYSGISWYQQKPGKPPTLLIYGASNLESGVPPRFSGSGSGTDYTLTIGGVQAEDAATYYCLGGYSYSSITFGAGTNVEIK
modifications: P1-F02 VH; P1-F02 VL
On to B1, for which the “binding to FAM19A5 mutant M8” value with FAM19A5 mutants M1 to M8 [1] is “failed to bind”.

B2: P2-F07: anti-FAM19A5 antibody; VH SEQ ID NO: 164, VL SEQ ID NO: 175 (antibody, V domains shown)
VH: QSLEESGGRLVTPGTPLTLTCTASGFSLSSYYMNWVRQAPGKGLEWIGIIYPSGTTYYAGWAKGRFTISKTSTTVDLKITSPTSEDTATYFCARTVSGYFDIWGPGTLVTVSL
VL: ELDLTQTPPSLSASVGGTVTINCLASEDIYSALAWYQQKPGKPPTLLISGTSNLESGVPPRFSGSGSGTDYTLTIGGVQAEDAATYFCQGYSSYPLTFGAGTNVEIK
modifications: P2-F07 VH; P2-F07 VL
Take B2: in the assay with FAM19A5 mutants M1 to M8 [1], the “binding to FAM19A5 mutant M8” value is “failed to bind”.

B3: P2-F11: anti-FAM19A5 antibody; VH SEQ ID NO: 165, VL SEQ ID NO: 176 (antibody, V domains shown)
VH: QEQLVESGGRLVTPGTTLTLTCTVSGFSLSSYGVSWVRQAPGKGLEWIGYIANNYNPHYASWAKGRFTISKTSSTTVDLKMTSLTTEDTATYFCARDNYGMDPWGPGTLVTVSS
VL: ELDLTQTPSSVSAAVGGTVTINCQASQSVYNNKNLAWYQQKPGQPPKLLIYAASTLASGVSSRFKGSGSGTQFTLTISDVQCDDAATYYCQGEFSCSSADCNAFGGGTELEIL
modifications: P2-F11 VH; P2-F11 VL
Consider B3, for which the “binding to FAM19A5 mutant M8” value with FAM19A5 mutants M1 to M8 [1] was “failed to bind”. For the same molecule, the “cross-competition with the other anti-FAM19A5 antibodies” value with FAM19A5 antigen was “cross-competed with one another”.

B4: P1-A08: anti-FAM19A5 antibody; VH SEQ ID NO: 160, VL SEQ ID NO: 171 (antibody, V domains shown)
VH: QSLEESGGRLVTPGTPLTLTCTASGFSLSTYYMSWVRQAPGKGLEWIGIVYPSGTTYYANWAKGRFTISTASTTVDLMITSPTTEDTATYFCARGDSFGYGLWGPGTLVTVSS
VL: ELVLTQSPSVQVNLGQTVSLTCTADTLSRSYASWYQQKPGQAPVLLIYRDTSRPSGVPDRFSGSSSGNTATLTISGAQAGDEADYYCATSDGSGSNYQYVFGGGTQLTVT
modifications: P1-A08 VH; P1-A08 VL
As for B4, the “binding to FAM19A5 mutant M8” value with FAM19A5 mutants M1 to M8 [1] is given as “failed to bind”.

B5: P2-A03: anti-FAM19A5 antibody; VH SEQ ID NO: 163, VL SEQ ID NO: 174 (antibody, V domains shown)
VH: QSVEESGGRLVTPGTPLTLTCTVSGFSLNNYDMSWVRQAPGKGLEYIGFMDTDGSAYYATWAKGRFTISRTSTTVDLKMTSPTTEDTATYFCARRGSSYYGGIDIWGPGTPVTVSL
VL: ELDLTQTPASVSEPVGGTVTIKCQASQSIGGNLAWYQQKPGQPPKLLIYRASTLASGVPSRFKGSGSGTDFTLTISDLECADAATYYCQSPAYDPAAYVGNAFGGGTELEIL
modifications: P2-A03 VH; P2-A03 VL
For the molecule B5, the “binding to FAM19A5 mutant M8” value with FAM19A5 mutants M1 to M8 [1] was “failed to bind”. In addition, the “cross-competition with the other anti-FAM19A5 antibodies” value with FAM19A5 antigen was “cross-competed with one another”.

B6: P2-A01: anti-FAM19A5 antibody; VH SEQ ID NO: 162, VL SEQ ID NO: 173 (antibody, V domains shown)
VH: QEQLVESGGRLVTPGTPLTLSCTASGFFLSGYYMSWVRQAPGKGLEWIGIIYPSGSTDYASWAKGRFTISKTSTTVDLKITTPTTEDTATYFCARVAGYVGYGYETFFDIWGPGTLVTVSL
VL: ELVMTQTPPSLSASVGETVRIRCLASEDIYSGISWYQQKPGKPPTLLIYGASNLESGVPPRFSGSGSGSDYTLTIGGVQAEDAATYYCLGGVTYSSTGTHLTFGAGTNVEIK
modifications: P2-A01 VH; P2-A01 VL
For the molecule B6, the “binding to FAM19A5 mutant M8” value in the assay with FAM19A5 mutants M1 to M8 [1] is “failed to bind”.

B7: 13F7: anti-FAM19A5 antibody; VH SEQ ID NO: 157, VL SEQ ID NO: 168 (antibody, V domains shown)
VH: QVQLQEWGAGLLKPSETLSLTCAINAESFNGYSWTWIRQTPGKGLEWIGEISHFGSANYNPSLKSRATISADKSKNQFSLKLTSVTAVDTAVYYCARALRGTYSRFYYGMDVWGQGTTVTVSS
VL: DIVMTQTPLSLPVAPGEPASISCRSSQSLLHSNGYNYLDWYVQKPGQPPQLLIYLGSNRASGVPDRFSGSGSGTDFTLKISRVEAEDVGVYYCMQARQTPLTFGGGTKVEIK
modifications: 13F7 VH; 13F7 VL
Turning to B7, the “binding to FAM19A5 mutant M8” value with FAM19A5 mutants M1 to M8 [1] is given as “failed to bind”. Also, the “binding to FAM19A5 mutant M7” value with FAM19A5 mutants M1 to M8 [2] is recorded as “reduced binding”.

B8: 15A9: anti-FAM19A5 antibody; VH SEQ ID NO: 158, VL SEQ ID NO: 169 (antibody, V domains shown)
VH: QVQLQESGPGLVKPSETLSLTCTVSGGSISSYYWSWIRQPPGKGLEWIGYIYPSGSTNYNPSLKSRVTISVDTSKNQFSLNLKSVTAVDTAVYYCARVNPFGYYYAMDVWGQGTTVTVSS
VL: DIQMTQSPSSLSASVGDRITISCRASQSISTSLNWYQQTPGKAPRLLIYGASTLQSGVPSRFSGGGSGTDFSLTITSLQPEDFATYYCQESASIPRTFGQGTKLDIK
modifications: 15A9 VH; 15A9 VL
Take B8: in the assay with FAM19A5 mutants M1 to M8 [1], the “binding to FAM19A5 mutant M8” value is “failed to bind”. In addition, in the assay with FAM19A5 mutants M1 to M8 [2], the “binding to FAM19A5 mutant M7” value is on record as “reduced binding”.
